Values belong to the molecule of their own block, whether it stands above or below them.
Target: CD33 antigen (UniProt P20138)
Test: competitive binding against 125I-murine M195 on HL60 cells

UniProt P20138, sequence (P20138 18-364 limits assumed): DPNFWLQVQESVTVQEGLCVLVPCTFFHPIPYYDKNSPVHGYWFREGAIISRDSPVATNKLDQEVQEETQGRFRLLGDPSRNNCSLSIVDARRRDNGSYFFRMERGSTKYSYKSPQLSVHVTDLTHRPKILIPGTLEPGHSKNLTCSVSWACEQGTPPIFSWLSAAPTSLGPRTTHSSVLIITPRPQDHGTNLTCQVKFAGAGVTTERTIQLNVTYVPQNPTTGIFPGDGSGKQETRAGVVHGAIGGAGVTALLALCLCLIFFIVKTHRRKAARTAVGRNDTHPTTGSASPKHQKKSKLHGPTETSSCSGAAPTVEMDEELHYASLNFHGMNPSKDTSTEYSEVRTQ

- fold increase in binding affinity against the chimeric antibody: 8 fold
Molecule: aglycosylated chimeric M195 antibody

- Ka: 2e+09 M⁻¹
Molecule: murine M195 antibody

- fold increase in binding affinity against the chimeric (or murine) antibody: 8 fold
B1: humanized M195 antibody (antibody, INN chains, looked up, human IgG1, V domains shown)
VH: QVQLVQSGAEVKKPGSSVKVSCKASGYTFTDYNMHWVRQAPGQGLEWIGYIYPYNGGTGYNQKFKSKATITADESTNTAYMELSSLRSEDTAVYYCARGRPAMDYWGQGTLVTVSS
VL: DIQMTQSPSSLSASVGDRVTITCRASESVDNYGISFMNWFQQKPGKAPKLLIYAASNQGSGVPSRFSGSGSGTDFTLTISSLQPDDFATYYCQQSKEVPWTFGQGTKVEIK
